The target in data set [1] is T1, OsUGT91C1 (Oryza sativa, UniProt Q0DPB7).
T1 construct: gene Os03g0702000; synthetic coding region in pET28b, His-tagged, E. coli BL21(DE3); HisTrap and gel filtration; tag removal not mentioned; monomer
T1 sequence (Q0DPB7 1-462): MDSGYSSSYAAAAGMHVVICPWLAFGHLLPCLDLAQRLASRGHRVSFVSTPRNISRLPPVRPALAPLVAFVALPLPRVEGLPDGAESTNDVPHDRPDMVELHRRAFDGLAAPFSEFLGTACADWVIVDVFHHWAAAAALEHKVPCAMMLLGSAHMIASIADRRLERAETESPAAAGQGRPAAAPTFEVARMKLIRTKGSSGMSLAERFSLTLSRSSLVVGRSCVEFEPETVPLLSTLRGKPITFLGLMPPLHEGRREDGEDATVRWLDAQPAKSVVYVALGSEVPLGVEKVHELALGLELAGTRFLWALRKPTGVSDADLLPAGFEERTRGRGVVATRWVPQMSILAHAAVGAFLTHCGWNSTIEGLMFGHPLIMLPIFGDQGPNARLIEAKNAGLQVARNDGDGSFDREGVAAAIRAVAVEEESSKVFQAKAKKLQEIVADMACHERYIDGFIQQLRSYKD
The data set can be described thus: X-ray crystal structure. Format: binding. Conditions: complexes with Reb E, ST or STB; UDP-glucose site.

Substrate in data set [2]: C=C1C[C@@]23CC[C@H]4[C@@](C)(CCC[C@@]4(C)C(=O)O[C@@H]4O[C@H](CO)[C@@H](O)[C@H](O)[C@H]4O)[C@@H]2CC[C@]1(O[C@@H]1O[C@H](CO)[C@@H](O)[C@H](O)[C@H]1O)C3
The data set can be described thus: UDP-Glo glycosyltransferase assay, Michaelis-Menten fit. Format: biochemical, Oryza sativa. To be noted: 200 μM UDP-glucose; combined beta(1-2) glucosylation at R1 and R2.

Substrate in data set [3]: C=C1C[C@@]23CC[C@H]4[C@@](C)(CCC[C@@]4(C)C(=O)O)[C@@H]2CC[C@]1(O[C@@H]1O[C@H](CO)[C@@H](O)[C@H](O)[C@H]1O)C3
The data set is described as above. Conditions: 200 μM UDP-glucose; beta(1-2) glucosylation at R1. Format: biochemical, Oryza sativa.

Substrate in data set [4]: C=C1C[C@@]23CC[C@H]4[C@@](C)(CCC[C@@]4(C)C(=O)O[C@@H]4O[C@H](CO)[C@@H](O)[C@H](O)[C@H]4O)[C@@H]2CC[C@]1(O[C@@H]1O[C@H](CO)[C@@H](O)[C@H](O[C@@H]2O[C@H](CO)[C@@H](O)[C@H](O)[C@H]2O)[C@H]1O[C@@H]1O[C@H](CO)[C@@H](O)[C@H](O)[C@H]1O)C3
Nature of the data set: purified protein. To be noted: 200 μM UDP-glucose; beta(1-2) glucosylation at R2.

Substrate in data set [5]: C=C1C[C@@]23CC[C@H]4[C@@](C)(CCC[C@@]4(C)C(=O)O)[C@@H]2CC[C@]1(O[C@@H]1O[C@H](CO)[C@@H](O)[C@H](O)[C@H]1O[C@@H]1O[C@H](CO)[C@@H](O)[C@H](O)[C@H]1O)C3
Nature of the data set: UDP-Glo glycosyltransferase assay, Michaelis-Menten fit. Format: biochemical, Oryza sativa. To be noted: 200 μM UDP-glucose; beta(1-6) glucosylation at R1; crystal structure with UDP, R1 end at active site.

Regarding `O=c1ccn([C@@H]2O[C@H](COP(=O)(O)OP(=O)(O)O)[C@@H](O)[C@H]2O)c(=O)[nH]1` [UDP], the X-ray crystal structure entry in data set [1] was “UDP is bound identically in all four complexes”.

B1: OsUGT91C1 (Oryza sativa Japonica Group; F208M) (protein)
chain: MDSGYSSSYAAAAGMHVVICPWLAFGHLLPCLDLAQRLASRGHRVSFVSTPRNISRLPPVRPALAPLVAFVALPLPRVEGLPDGAESTNDVPHDRPDMVELHRRAFDGLAAPFSEFLGTACADWVIVDVFHHWAAAAALEHKVPCAMMLLGSAHMIASIADRRLERAETESPAAAGQGRPAAAPTFEVARMKLIRTKGSSGMSLAERMSLTLSRSSLVVGRSCVEFEPETVPLLSTLRGKPITFLGLMPPLHEGRREDGEDATVRWLDAQPAKSVVYVALGSEVPLGVEKVHELALGLELAGTRFLWALRKPTGVSDADLLPAGFEERTRGRGVVATRWVPQMSILAHAAVGAFLTHCGWNSTIEGLMFGHPLIMLPIFGDQGPNARLIEAKNAGLQVARNDGDGSFDREGVAAAIRAVAVEEESSKVFQAKAKKLQEIVADMACHERYIDGFIQQLRSYKD
notes: synthetic coding region in pET28b, His-tagged, E. coli BL21(DE3); HisTrap and gel filtration; tag removal not mentioned; monomer
One may read the Km as the concentration of substrate that gives half-maximal velocity. Usually kcat stands for the number of substrate molecules converted per active site and unit of time at saturation. In general, kcat/Km refers to the turnover number divided by the Michaelis constant. On to B1, for which, in data set [2], the Km was 20.9 ± 1.7 µM, the kcat turned out to be 0.04 ± 0.00167 s⁻¹ and the kcat/Km was determined as 1910 M⁻¹ s⁻¹. Further, in data set [3], the Km came to 18.7 ± 1.7 µM, the kcat was 0.065 ± 0.00167 s⁻¹ and the kcat/Km was determined as 3480 M⁻¹ s⁻¹. In data set [4], the Km is 25.2 ± 2.0 µM, the kcat is 0.0483 s⁻¹ and the kcat/Km is 1920 M⁻¹ s⁻¹.

B2: OsUGT91C1 (Oryza sativa Japonica Group; F208M/F379A) (protein)
chain: MDSGYSSSYAAAAGMHVVICPWLAFGHLLPCLDLAQRLASRGHRVSFVSTPRNISRLPPVRPALAPLVAFVALPLPRVEGLPDGAESTNDVPHDRPDMVELHRRAFDGLAAPFSEFLGTACADWVIVDVFHHWAAAAALEHKVPCAMMLLGSAHMIASIADRRLERAETESPAAAGQGRPAAAPTFEVARMKLIRTKGSSGMSLAERMSLTLSRSSLVVGRSCVEFEPETVPLLSTLRGKPITFLGLMPPLHEGRREDGEDATVRWLDAQPAKSVVYVALGSEVPLGVEKVHELALGLELAGTRFLWALRKPTGVSDADLLPAGFEERTRGRGVVATRWVPQMSILAHAAVGAFLTHCGWNSTIEGLMFGHPLIMLPIAGDQGPNARLIEAKNAGLQVARNDGDGSFDREGVAAAIRAVAVEEESSKVFQAKAKKLQEIVADMACHERYIDGFIQQLRSYKD
notes: as for B1
Turning to B2, in data set [2], the Michaelis-Menten constant (Km) was 11.7 ± 1.0 µM, the kcat was determined as 0.0467 ± 0.00167 s⁻¹ and the kcat/Km was found to be 3990 M⁻¹ s⁻¹. Further, in data set [3], the Michaelis-Menten constant (Km) came to 9.7 ± 1.9 µM, the kcat came out at 0.0583 ± 0.00167 s⁻¹ and the specificity constant (kcat/Km) was found to be 6010 M⁻¹ s⁻¹. In data set [4], the Km came out at 15.1 ± 2.6 µM, the kcat is 0.0283 s⁻¹ and the kcat/Km was 1880 M⁻¹ s⁻¹.

B3: OsUGT91C1 (Oryza sativa Japonica Group; F379A) (protein)
chain: MDSGYSSSYAAAAGMHVVICPWLAFGHLLPCLDLAQRLASRGHRVSFVSTPRNISRLPPVRPALAPLVAFVALPLPRVEGLPDGAESTNDVPHDRPDMVELHRRAFDGLAAPFSEFLGTACADWVIVDVFHHWAAAAALEHKVPCAMMLLGSAHMIASIADRRLERAETESPAAAGQGRPAAAPTFEVARMKLIRTKGSSGMSLAERFSLTLSRSSLVVGRSCVEFEPETVPLLSTLRGKPITFLGLMPPLHEGRREDGEDATVRWLDAQPAKSVVYVALGSEVPLGVEKVHELALGLELAGTRFLWALRKPTGVSDADLLPAGFEERTRGRGVVATRWVPQMSILAHAAVGAFLTHCGWNSTIEGLMFGHPLIMLPIAGDQGPNARLIEAKNAGLQVARNDGDGSFDREGVAAAIRAVAVEEESSKVFQAKAKKLQEIVADMACHERYIDGFIQQLRSYKD
notes: as for B1
On to B3, for which the figures for the Michaelis-Menten constant (Km) in data set [2], in data set [3] and in data set [4] were 16.5 ± 2.6 µM, 19.0 ± 2.6 µM and 37.0 ± 2.5 µM, respectively. Also, the kcat in data set [2] stood at 0.045 ± 0.00167 s⁻¹; in data set [3] it was 0.0967 ± 0.00333 s⁻¹; in data set [4], 0.0193 s⁻¹. Besides, the kcat/Km stood at 2730 M⁻¹ s⁻¹ in data set [2], 5090 M⁻¹ s⁻¹ in data set [3] and 523 M⁻¹ s⁻¹ in data set [4].

B4: OsUGT91C1 (Oryza sativa Japonica Group) (protein)
chain: MDSGYSSSYAAAAGMHVVICPWLAFGHLLPCLDLAQRLASRGHRVSFVSTPRNISRLPPVRPALAPLVAFVALPLPRVEGLPDGAESTNDVPHDRPDMVELHRRAFDGLAAPFSEFLGTACADWVIVDVFHHWAAAAALEHKVPCAMMLLGSAHMIASIADRRLERAETESPAAAGQGRPAAAPTFEVARMKLIRTKGSSGMSLAERFSLTLSRSSLVVGRSCVEFEPETVPLLSTLRGKPITFLGLMPPLHEGRREDGEDATVRWLDAQPAKSVVYVALGSEVPLGVEKVHELALGLELAGTRFLWALRKPTGVSDADLLPAGFEERTRGRGVVATRWVPQMSILAHAAVGAFLTHCGWNSTIEGLMFGHPLIMLPIFGDQGPNARLIEAKNAGLQVARNDGDGSFDREGVAAAIRAVAVEEESSKVFQAKAKKLQEIVADMACHERYIDGFIQQLRSYKD
notes: as for B1
In the case of B4, the Km turned out to be 49.5 ± 5.3 µM in data set [2], 71 ± 12 µM in data set [5], 24.9 ± 2.5 µM in data set [3] and 45.7 ± 3.0 µM in data set [4]. For the same molecule, the kcat in data set [2] is 0.0333 ± 0.00167 s⁻¹; in data set [5], 0.0105 ± 0.0005 s⁻¹; in data set [3], 0.0483 ± 0.00167 s⁻¹; in data set [4], 0.0203 s⁻¹. Further, the kcat/Km in data set [2] is 673 M⁻¹ s⁻¹; in data set [5], 148 M⁻¹ s⁻¹; in data set [3], 1940 M⁻¹ s⁻¹; in data set [4] it was 445 M⁻¹ s⁻¹.

The values are drawn from paper PMC8639739, “Catalytic flexibility of rice glycosyltransferase OsUGT91C1 for the production of palatable steviol glycosides” (Nature Communications, 2021).
